Experimental data reported in patent publication US20240124553A1.

Columns and labels:
Experiment in all cases: flow cytometry, transfected 293T cells
[1] = target: CHIKV E2-E1 envelope glycoproteins (strain S27), E2 mutant T116A (chikungunya virus strain S27) (UniProt Q8JUX5)
[2] = target: CHIKV E2-E1 envelope glycoproteins (strain S27), E2 mutant A103S (chikungunya virus strain S27) (UniProt Q8JUX5)
[3] = target: CHIKV E2-E1 envelope glycoproteins (strain S27), E2 mutant G98A (chikungunya virus strain S27) (UniProt Q8JUX5)
[4] = target: CHIKV E2-E1 envelope glycoproteins (strain S27), E2 mutant I93A (chikungunya virus strain S27) (UniProt Q8JUX5)
[5] = target: CHIKV E2-E1 envelope glycoproteins (strain S27), E2 mutant M70A (chikungunya virus strain S27) (UniProt Q8JUX5)
[6] = target: CHIKV E2-E1 envelope glycoproteins (strain S27), E2 mutant D132A (chikungunya virus strain S27) (UniProt Q8JUX5)
[7] = target: CHIKV E2-E1 envelope glycoproteins (strain S27), E2 mutant V50A (chikungunya virus strain S27) (UniProt Q8JUX5)
[8] = target: CHIKV E2-E1 envelope glycoproteins (strain S27), E2 mutant S122A (chikungunya virus strain S27) (UniProt Q8JUX5)
[9] = target: CHIKV E2-E1 envelope glycoproteins (strain S27), E2 mutant N72A (chikungunya virus strain S27) (UniProt Q8JUX5)
[10] = target: CHIKV E2-E1 envelope glycoproteins (strain S27), E2 mutant K120A (chikungunya virus strain S27) (UniProt Q8JUX5)
[11] = target: CHIKV E2-E1 envelope glycoproteins (strain S27), E2 mutant V32A (chikungunya virus strain S27) (UniProt Q8JUX5)
[12] = target: CHIKV E2-E1 envelope glycoproteins (strain S27), E2 mutant L102A (chikungunya virus strain S27) (UniProt Q8JUX5)
[13] = target: CHIKV E2-E1 envelope glycoproteins (strain S27), E2 mutant S124A (chikungunya virus strain S27) (UniProt Q8JUX5)
[14] = target: CHIKV E2-E1 envelope glycoproteins (strain S27), E2 mutant S118A (chikungunya virus strain S27) (UniProt Q8JUX5)
[15] = target: CHIKV E2-E1 envelope glycoproteins (strain S27), E2 mutant A89S (chikungunya virus strain S27) (UniProt Q8JUX5)
[16] = target: CHIKV E2-E1 envelope glycoproteins (strain S27), E2 mutant G82A (chikungunya virus strain S27) (UniProt Q8JUX5)
[17] = target: CHIKV E2-E1 envelope glycoproteins (strain S27), E2 mutant Q49A (chikungunya virus strain S27) (UniProt Q8JUX5)
[18] = target: CHIKV E2-E1 envelope glycoproteins (strain S27), E2 mutant A76S (chikungunya virus strain S27) (UniProt Q8JUX5)
[19] = target: CHIKV E2-E1 envelope glycoproteins (strain S27), E2 mutant L46A (chikungunya virus strain S27) (UniProt Q8JUX5)
[20] = target: CHIKV E2-E1 envelope glycoproteins (strain S27), E2 mutant I56A (chikungunya virus strain S27) (UniProt Q8JUX5)
[21] = target: CHIKV E2-E1 envelope glycoproteins (strain S27), E2 mutant I74A (chikungunya virus strain S27) (UniProt Q8JUX5)
[22] = target: CHIKV E2-E1 envelope glycoproteins (strain S27), E2 mutant M97A (chikungunya virus strain S27) (UniProt Q8JUX5)
[23] = target: CHIKV E2-E1 envelope glycoproteins (strain S27), E2 mutant Q53A (chikungunya virus strain S27) (UniProt Q8JUX5)
[24] = target: CHIKV E2-E1 envelope glycoproteins (strain S27), E2 mutant K107A (chikungunya virus strain S27) (UniProt Q8JUX5)
[25] = target: CHIKV E2-E1 envelope glycoproteins (strain S27), E2 mutant P133A (chikungunya virus strain S27) (UniProt Q8JUX5)
[26] = target: CHIKV E2-E1 envelope glycoproteins (strain S27), E2 mutant P75A (chikungunya virus strain S27) (UniProt Q8JUX5)
[27] = target: CHIKV E2-E1 envelope glycoproteins (strain S27), E2 mutant G44A (chikungunya virus strain S27) (UniProt Q8JUX5)
[28] = target: CHIKV E2-E1 envelope glycoproteins (strain S27), E2 mutant I54A (chikungunya virus strain S27) (UniProt Q8JUX5)
[29] = target: CHIKV E2-E1 envelope glycoproteins (strain S27), E2 mutant C91A (chikungunya virus strain S27) (UniProt Q8JUX5)
[30] = target: CHIKV E2-E1 envelope glycoproteins (strain S27), E2 mutant E35A (chikungunya virus strain S27) (UniProt Q8JUX5)
[31] = target: CHIKV E2-E1 envelope glycoproteins (strain S27), E2 mutant Y69A (chikungunya virus strain S27) (UniProt Q8JUX5)
[32] = target: CHIKV E2-E1 envelope glycoproteins (strain S27), E2 mutant T58A (chikungunya virus strain S27) (UniProt Q8JUX5)
[33] = target: CHIKV E2-E1 envelope glycoproteins (strain S27), E2 mutant R38A (chikungunya virus strain S27) (UniProt Q8JUX5)

Row | Substance | Binding Reactivity (% WT) [1] [% WT] | Binding Reactivity (% WT) [2] [% WT] | Binding Reactivity (% WT) [3] [% WT] | Binding Reactivity (% WT) [4] [% WT] | Binding Reactivity (% WT) [5] [% WT] | Binding Reactivity (% WT) [7] [% WT] | Binding Reactivity (% WT) [8] [% WT] | Binding Reactivity (% WT) [9] [% WT] | Binding Reactivity (% WT) [10] [% WT] | Binding Reactivity (% WT) [11] [% WT] | Binding Reactivity (% WT) [12] [% WT] | Binding Reactivity (% WT) [13] [% WT] | Binding Reactivity (% WT) [14] [% WT] | Binding Reactivity (% WT) [15] [% WT] | Binding Reactivity (% WT) [16] [% WT] | Binding Reactivity (% WT) [17] [% WT] | Binding Reactivity (% WT) [19] [% WT] | Binding Reactivity (% WT) [20] [% WT] | Binding Reactivity (% WT) [21] [% WT] | Binding Reactivity (% WT) [22] [% WT] | further results
1 | CHIKV mAb C9 (antibody) | 98.2 | 69.7 | 102 | 10.4 | 81 | 76.7 | 98.7 | 112 | 15.4 | 44 | 31.2 | 116 | 97.4 | 109 | 90.2 | 47 | 1.7 | 114 | 108 | 76.3 | Binding Reactivity (% WT) [6]: 94.4 % WT; Binding Reactivity (% WT) [18]: 107 % WT; Binding Reactivity (% WT) [23]: 39.6 % WT; Binding Reactivity (% WT) [24]: 95.6 % WT; Binding Reactivity (% WT) [25]: 87.2 % WT; Binding Reactivity (% WT) [26]: 98.5 % WT; Binding Reactivity (% WT) [27]: 72.5 % WT; Binding Reactivity (% WT) [28]: 110 % WT; Binding Reactivity (% WT) [29]: 0.6 % WT; Binding Reactivity (% WT) [30]: 22.2 % WT; Binding Reactivity (% WT) [31]: 55.3 % WT; Binding Reactivity (% WT) [32]: 98.6 % WT; Binding Reactivity (% WT) [33]: 86.3 % WT
2 | CHIKV mAb CHKV-88 (antibody) | 110 | 85 | 106 | 29.1 | 93.7 | 78.6 | 84.3 | 109 | 82.3 | 84.8 | 61.4 | 112 | 117 | 118 | 91.5 | 87.1 | 23.6 | 116 | 106 | 85.1 | Binding Reactivity (% WT) [6]: 120 % WT; Binding Reactivity (% WT) [18]: 122 % WT; Binding Reactivity (% WT) [23]: 85 % WT; Binding Reactivity (% WT) [24]: 99.2 % WT; Binding Reactivity (% WT) [25]: 92.3 % WT; Binding Reactivity (% WT) [26]: 115 % WT; Binding Reactivity (% WT) [27]: 98.1 % WT; Binding Reactivity (% WT) [28]: 116 % WT; Binding Reactivity (% WT) [29]: 4 % WT; Binding Reactivity (% WT) [30]: 55.9 % WT; Binding Reactivity (% WT) [31]: 95.4 % WT; Binding Reactivity (% WT) [32]: 81.2 % WT; Binding Reactivity (% WT) [33]: 99.6 % WT
3 | Mxra8-Fc (mouse Mxra8 extracellular domain fused to mouse IgG2b Fc) (Fc fusion) | 31.2 | 91.3 | 102 | 14.6 | 110 | 67.8 | 101 | 128 | 1.8 | 47.1 | 22.8 | 92.8 | 89.6 | 102 | 123 | 56.8 | 4.8 | 91.7 | 44.8 | 95.1 | Binding Reactivity (% WT) [23]: 26.3 % WT; Binding Reactivity (% WT) [24]: 84.6 % WT; Binding Reactivity (% WT) [25]: 81.3 % WT; Binding Reactivity (% WT) [26]: 86.7 % WT; Binding Reactivity (% WT) [27]: 72.2 % WT; Binding Reactivity (% WT) [28]: 104 % WT; Binding Reactivity (% WT) [29]: 1 % WT; Binding Reactivity (% WT) [30]: 11 % WT; Binding Reactivity (% WT) [31]: 106 % WT; Binding Reactivity (% WT) [32]: 94.1 % WT; Binding Reactivity (% WT) [33]: 90.7 % WT
